In article PMC9723649:

Tests used:
purified protein [1] = substrate: Nc1ncnc2c1ncn2[C@@H]1O[C@H](COP(=O)(O)OP(=O)(O)OP(=O)(O)O)[C@@H](O)[C@H]1O; assay: purified protein
purified protein [2] = substrate: N[C@@H](CO)C(=O)O; assay: purified protein

B1: SARS2 (human mitochondrial seryl-tRNA synthetase, mature form) (Homo sapiens; INS217NLSP/K218R) (protein)
chain: TTEKRNRNLLYEYAREGYSALPQLDIERFCACPEEAAHALELRKGELRSADLPAIISTWQELRQLQEQIRSLEEEKAAVTEAVRALLANQDSGEVQQDPKYQGLRARGREIRKELVHLYPREAQLEEQFYLQALKLPNQTHPDVPVGDESQARVLHMVGDKPVFSFQPRGHLEIGEKLDIIRQNLSPRRLSHVSGHRSYYLRGAGALLQHGLVNFTFNKLLRRGFTPMTVPDLLRGAVFEGCGMTPNANPSQIYNIDPARFKDLNLAGTAEVGLAGYFMDHTVAFRDLPVRMVCSSTCYRAETNTGQEPRGLYRVHHFTKVEMFGVTGPGLEQSSQLLEEFLSLQMEILTELGLHFRVLDMPTQELGLPAYRKFDIEAWMPGRGRFGEVTSASNCTDFQSRRLHIMFQTEAGELQFAHTVNATACAVPRLLIALLESNQQKDGSVLVPPALQSYLGTDRITAPTHVPLQYIGPNQPRKPGLPGQPAVS
Km (purified protein [1]): 64.69 ± 4.48 µM | Km (purified protein [2]): 1660 ± 30 µM
